Five molecules from paper PMC5663884, “Compositional and expression analyses of the glideosome during the Plasmodium life cycle reveal an additional myosin light chain required for maximum motility” (The Journal of Biological Chemistry, 2017) can be followed below.

One assay has as its target T1, PfELC (Plasmodium falciparum, UniProt Q8IJM4).
T1 construct: His tag (N); made in house; host or cells: E. coli BL21 (DE3)
As to the kind of experiment: biolayer interferometry binding of PfELC to immobilized MyoA neck peptides. Also noted: species or system P. falciparum. The conditions noted are these: 25 °C, pH 8.0, PfELC 0.04–5 μM. As to the method:
Overlapping peptides representing amino acids Gln^770–Ala^787, Ala^786–Ser^803, and Ile^801–Gln^818 of the PfMyoA neck were synthesized by Mimotopes with biotin at the N terminus. […] The C termini of the peptides were capped with an amide to remove unnatural charge, apart from peptide 801–818, which was left as a free acid.
P. falciparum ELC binding to peptides was analyzed by biolayer interferometry using the Octet Red system (ForteBio) at 25 °C in 96-well microplates, as described previously ([63]). All assays were performed in 100 mM Tris-HCl, pH 8.0, containing 0.005% (v/v) Tween 20, according to the manufacturer's instructions. A baseline was established over 4 min, and biotinylated peptides (0.4 μg/ml) were loaded onto streptavidin sensors for 10 min. The sensors were washed for 4 min and then incubated with PfELC at different concentrations (0.04–5 μM) for 800 s. The data were analyzed to calculate a dissociation constant (Kd) using non-linear regression with a one-site binding model and a least-squares fit (GraphPad Prism version 6).
A general note: In BLI a coated tip is dipped into the sample, and binding shifts an interference pattern.

The target in assay [1] is T2, Recombinant His-tagged PfELC (E. coli) (P. falciparum, UniProt Q8IJM4 1-134).
T2 construct: also called His-PfELC; His-ELC; source: E. coli BL21 (DE3), purified (nickel-nitrilotriacetic acid-agarose)
T2 sequence: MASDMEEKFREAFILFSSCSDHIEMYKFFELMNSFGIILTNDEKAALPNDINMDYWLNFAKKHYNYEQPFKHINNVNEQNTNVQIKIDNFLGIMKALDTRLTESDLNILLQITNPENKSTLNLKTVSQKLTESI
As to the kind of experiment: BLI. The conditions noted are these: both partners purified.

For a further assay, the system named is actin. As to the kind of experiment: optical tweezer-based single-molecule acto-MyoA interaction. Type of assay: biochemical. How it is done: MyoA was expressed in a wheat germ cell-free protein synthesis system (ENDEXT® Technology, CellFree Sciences) ([64]). Recombinant plasmid DNA using recodonized template DNA was amplified using specific primers and cloned into the vector pEU-E01G-TEV-N1 to express N-terminal GST-tagged protein. For the in vitro transcription reaction, 2 μg of DNA was added to a transcription premix (11.5 μl of nuclease-free water, 1× transcription buffer, 2.5 mM NTP mix, 1 unit/μl RNase inhibitor, 1 unit/μl SP6 RNA polymerase) in a total volume of 20 μl and incubated at 37 °C for 6 h, according to the manufacturer's instructions. The quality of mRNA produced was monitored by gel electrophoresis. The bilayer reaction system (CellFree Sciences) was used to translate mRNA into protein. mRNA (10 μl) was added to 10 μl of wheat germ extract (WEPRO® 1240) supplemented with 40 ng/μl creatine kinase and carefully transferred directly below the SUB-AMIX solution (0.3 mM of each L-amino acid, 100 mM potassium acetate, 2.7 mM magnesium acetate, 16 mM disodium creatine phosphate, 0.4 mM spermidine, 1.2 mM ATP, 0.25 mM GTP, 4 mM dithiothreitol, and 30 mM HEPES-KOH (pH 7.8)) and incubated for 20 h at 15–16 °C. Soluble GST-tagged MyoA was purified using glutathione-Sepharose beads (GE Healthcare); supernatant was incubated with the resin for 2 h at 4 °C, followed by extensive washing with 20 mM Tris-HCl, pH 8.0, 250 mM NaCl, 0.5 mM TCEP. The beads were resuspended in 3 volumes of 20 mM Tris-HCl, pH 8.0, 100 mM NaCl, 10 mM reduced glutathione to elute the GST-tagged protein. This was followed by buffer exchange into PBS on a PD10 column (GE Healthcare).
The optical tweezer assay, developed to measure the force and movement produced by individual myosin molecules interacting with an actin filament, was used in the well-established three-bead format with the experimental conditions as described ([65][–][67]). The experimental apparatus is based around a Zeiss inverted microscope, and experiments were performed in a flow-cell chamber created using a microscope slide and coverslip. […] Interactions between the surface-bound MyoA and the actin filament were recorded by monitoring movement of the beads held in the optical tweezers using two 4-quadrant, photodiode detectors. […] Individual events were then automatically detected by measuring changes in amplitude of the imposed triangular oscillation, and event amplitudes were histogrammed. Data were acquired and saved to computer memory using custom software, with a sampling rate of 10 kHz, and later analyzed using IgorPro software (WaveMetrics Inc., Lake Oswego, OR). Individual acto-MyoA force-producing events were identified as described previously ([65]), and the MyoA power-stroke amplitude and kinetics were analyzed by histogram analysis of the data.

Residues, ends and D or L forms follow the SMILES beside them. *: point of attachment. Biotin = O=C1N[C@H]2[C@H](CS[C@H]2CCCCC(=O)*)N1

`CC[C@H](C)[C@H](NC(=O)[C@H](C)NC(=O)[C@H](C)NC(=O)CNC(=O)[C@H](CO)NC(=O)CNC(=O)[C@H](CO)NC(=O)CCCC[C@@H]1SC[C@@H]2NC(=O)N[C@@H]21)C(=O)N[C@@H](CC(C)C)C(=O)N[C@@H](CCCCN)C(=O)N[C@@H](Cc1c[nH]cn1)C(=O)N[C@@H](CCCCN)C(=O)N[C@@H](Cc1ccc(O)cc1)C(=O)N[C@@H](CCCCN)C(=O)N[C@@H](CCC(N)=O)C(=O)N[C@@H](CCCCN)C(=O)N[C@H](C(=O)N[C@@H](CC(N)=O)C(=O)N[C@@H](CCCCN)C(=O)N[C@@H](CC(N)=O)C(=O)N[C@H](C(=O)N1CCC[C@H]1C(=O)N[C@@H](CO)C(N)=O)[C@@H](C)CC)C(C)C` [786–803] (Biotin-SGSGAAILKHKYKQKVNKNIPS-NH2): at PfELC, the “binding to PfELC (in words)” value is on record as “binds strongly to PfELC”. As to “peptide 770–787: biotinylated PfMyoA neck peptide Gln770–Ala787 with SGSG linker, C-terminal amide (Biotin-SGSGQREKLVEWENCVSVIEAA-NH2; SMILES CC[C@H](C)[C@H](NC(=O)[C@@H](NC(=O)[C@H](CO)NC(=O)[C@@H](NC(=O)[C@H](CS)NC(=O)[C@H](CC(N)=O)NC(=O)[C@H](CCC(=O)O)NC(=O)[C@H](Cc1c[nH]c2ccccc12)NC(=O)[C@H](CCC(=O)O)NC(=O)[C@@H](NC(=O)[C@H](CC(C)C)NC(=O)[C@H](CCCCN)NC(=O)[C@H](CCC(=O)O)NC(=O)[C@H](CCCNC(=N)N)NC(=O)[C@H](CCC(N)=O)NC(=O)CNC(=O)[C@H](CO)NC(=O)CNC(=O)[C@H](CO)NC(=O)CCCC[C@@H]1SC[C@@H]2NC(=O)N[C@@H]21)C(C)C)C(C)C)C(C)C)C(=O)N[C@@H](CCC(=O)O)C(=O)N[C@@H](C)C(=O)N[C@@H](C)C(N)=O; UniProt Q8IDR3 770-787, looked up, fragment)”, the “binding to PfELC (in words)” value is recorded as “no observable binding” with PfELC and “no binding” with PfELC (listed as MyoA 770–787).

B1: Biotinylated PfMyoA neck peptide 801–818 (peptide)
peptide: Biotin-SGSGIPSLLRVQAHIRKKMVAQ-OH
SMILES: CC[C@H](C)[C@H](NC(=O)[C@H](Cc1c[nH]cn1)NC(=O)[C@H](C)NC(=O)[C@H](CCC(N)=O)NC(=O)[C@@H](NC(=O)[C@H](CCCNC(=N)N)NC(=O)[C@H](CC(C)C)NC(=O)[C@H](CC(C)C)NC(=O)[C@H](CO)NC(=O)[C@@H]1CCCN1C(=O)[C@@H](NC(=O)CNC(=O)[C@H](CO)NC(=O)CNC(=O)[C@H](CO)NC(=O)CCCC[C@@H]1SC[C@@H]2NC(=O)N[C@@H]21)[C@@H](C)CC)C(C)C)C(=O)N[C@@H](CCCNC(=N)N)C(=O)N[C@@H](CCCCN)C(=O)N[C@@H](CCCCN)C(=O)N[C@@H](CCSC)C(=O)N[C@H](C(=O)N[C@@H](C)C(=O)N[C@@H](CCC(N)=O)C(=O)O)C(C)C
notes: source: synthetic peptide (Mimotopes)
Turning to B1, in assay [1], the Kd (commonly the free concentration of one partner at which half of the binding sites on the other are occupied at equilibrium, for simple one-to-one binding) stood at 320 nM.

B2: Biotinylated PfMyoA neck peptide 786–803 (peptide)
peptide: Biotin-SGSGAAILKHKYKQKVNKNIPS-NH2
SMILES: CC[C@H](C)[C@H](NC(=O)[C@H](C)NC(=O)[C@H](C)NC(=O)CNC(=O)[C@H](CO)NC(=O)CNC(=O)[C@H](CO)NC(=O)CCCC[C@@H]1SC[C@@H]2NC(=O)N[C@@H]21)C(=O)N[C@@H](CC(C)C)C(=O)N[C@@H](CCCCN)C(=O)N[C@@H](Cc1c[nH]cn1)C(=O)N[C@@H](CCCCN)C(=O)N[C@@H](Cc1ccc(O)cc1)C(=O)N[C@@H](CCCCN)C(=O)N[C@@H](CCC(N)=O)C(=O)N[C@@H](CCCCN)C(=O)N[C@H](C(=O)N[C@@H](CC(N)=O)C(=O)N[C@@H](CCCCN)C(=O)N[C@@H](CC(N)=O)C(=O)N[C@H](C(=O)N1CCC[C@H]1C(=O)N[C@@H](CO)C(N)=O)[C@@H](C)CC)C(C)C
notes: as for B1
For the molecule B2, in assay [1], the Kd came to 480 nM.

B3: Myosin A (protein)
chain: MAVTNEEIKTASKIVRRVSNVEAFDKSGSVFKGYQIWTDISPTIENDPNIMFVKCVVQQGSKKEKLTVVQIDPPGTGTPYDIDPTHAWNCNSQVDPMSFGDIGLLNHTNIPCVLDFLKHRYLKNQIYTTAVPLIVAINPYKDLGNTTNEWIRRYRDTADHTKLPPHVFTCAREALSNLHGVNKSQTIIVSGESGAGKTEATKQIMRYFASSKSGNMDLRIQTAIMAANPVLEAFGNAKTIRNNNSSRFGRFMQLVISHEGGIRYGSVVAFLLEKSRIITQDDNERSYHIFYQFLKGANSTMKSKFGLKGVTEYKLLNPNSTEVSGVDDVKDFEEVIESLKNMELSESDIEVIFSIVAGILTLGNVRLIEKQEAGLSDAAAIMDEDMGVFNKACELMYLDPELIKREILIKVTVAGGTKIEGRWNKNDAEVLKSSLCKAMYEKLFLWIIRHLNSRIEPEGGFKTFMGMLDIFGFEVFKNNSLEQLFINITNEMLQKNFVDIVFERESKLYKDEGISTAELKYTSNKEVINVLCEKGKSVLSYLEDQCLAPGGTDEKFVSSCATNLKENNKFTPAKVASNKNFIIQHTIGPIQYCAESFLLKNKDVLRGDLVEVIKDSPNPIVQQLFEGQVIEKGKIAKGSLIGSQFLNQLTSLMNLINSTEPHFIRCIKPNENKKPLEWCEPKILIQLHALSILEALVLRQLGYSYRRTFEEFLYQYKFVDIAAAEDSSVENQNKCVNILKLSGLSESMYKIGKSMVFLKQEGAKILTKIQREKLVEWENCVSVIEAAILKHKYKQKVNKNIPSLLRVQAHIRKKMVAQ
modifications: left off: GST, N-terminal, kept
notes: GST-tagged PfMyoA expressed in wheat germ cell-free system
Turning to B3, the “rate constant of event lifetimes (single-exponential least-square fit)” value in the assay on actin (0.3 μM Mg·ATP) was 6.9 s⁻¹; in the assay on actin (8 μM Mg·ATP) it was 53 s⁻¹. In addition, in the assay on actin (from event lifetimes at 0.3 and 8 μM ATP), the “second-order rate constant for Mg·ATP binding and dissociating the acto-MyoA rigor complex” value is about 1.5e+07 M⁻¹ s⁻¹. Besides, the “working stroke (power stroke)” value with actin (shift in mean position of event distribution, 244 acto-MyoA binding events, 2 μM ATP) is on record as 3 nm.
